Assays:
[1] = molecular target: M2 protein of A/Puerto Rico/8/34 (H1N1), on cells (Influenza A virus A/Puerto Rico/8/34 (H1N1)) (UniProt P06821); assay: flow cytometry on MDCK cells infected with A/Puerto Rico/8/34
[2] = molecular target: M2 protein of A/Hong Kong/483/1997, on cells (Influenza A virus A/Hong Kong/483/97 (H5N1)); assay: FACS, supernatant on CHO cells stably expressing M2 of A/Hong Kong/483/97
[3] = molecular target: M2 protein on influenza A/Puerto Rico/8/34 (H1N1) virus particles (Influenza A virus A/Puerto Rico/8/34 …, UniProt P06821 1-97); assay: surface plasmon resonance, Fab on influenza virus

| Molecule | FACS M2-HK MFI [2] | further results |
| --- | --- | --- |
| TCN-031 (antibody) | – | EC50 (read off the curve) [1]: 0.2 µg/mL |
| TCN-032 (antibody) | – | EC50 (read off the curve) [1]: 0.1 µg/mL |
| 3245_O19 (antibody, V domains shown) VH: EVQLVESGGGLVQPGGSLRLSCTASGLSVSSTYMNWVRQAPGKGLEWVSVFYSETRTYYADSVKGRFTVSRHNSNNTLYLQMNSLRVEDTAVYYCARVQRLSYGMDVWGQGTTVTVSS VL: DIQMTQSPSSLSASVGDRVTITCRASQSISTYLNWYQKRPGKAPKLLVYGASTLQSGVPSRFSGSGSGTDFTLTIASLQPEDSATYYCQQTYSIPLFGQGTRLEIK | 919 MFI | – |
| 3244_H04 (antibody, V domains shown) VH: EVQLVESGGGLVQPGGSLRLSCTASGLSVSSTYMNWVRQAPGKGLEWVSVFYSETRTYYADSVKGRFTVSRHNSNNTLYLQMNSLRAEDTAVYYCARVQRLSYGMDVWGQGTTVTVSS VL: DIQMTQSPSSLSASVGDRVTITCRASQSISTYLNWYQKRPGKAPKLLVYGASSLQSGVPSRFSGSGSGTDFTLTIASLQPEDSAVYYCQQTYSIPLFGQGTRLEIK | 963 MFI | – |
| 3241_G23 (antibody, V domains shown) VH: QVQLQQSGPGLVKPSQTLSLTCTVSGGPVSGGGYSWNWIRQRPGQGLEWVGFMFHSGSPRYNPTLKSRITISVDTSKNLVSLKLSSVTAADTAVYFCARVGQMDKYYAMDVWGQGTTVTVSS VL: DIQMTQSPSSLSSSVGDRVTITCRASQSIGAYVNWYQQKAGKAPQVLIFGASNLQSGVPSRFSGSGSGTDFTLTISSLQPEDFATYFCQQTYSTPITFGQGTRLEIK | 1700 MFI | – |
| 3139_P23 (antibody, V domains shown) VH: QVQLQESGPRLVKPSESLSLTCTVSGGSISNSFWGWIRQPPGEGLEWIGYVYNSGNTKYNPSLKSRVTISRDTSKSQLYMKLRSVTAADTAVYYCARHDDASHGYSISWGHGTLVTVSS VL: DIQMTQSPSSLSASVGDRVTITCRASQTISTYLNWYQQKSGKAPKLLIYAASGLQSGVPSRFSGSGSGTDFTLTISSLQPEDFATYFCQQSYNTPLTFGQGTKVEIK | 110 MFI | – |
| 3244_I10 (antibody, V domains shown) VH: QVQLQESGPGLLKPSDTLALTCTVSGGSITSDYWSWIRQPPGRGLDWIGFFYNGGSTKYNPSLKSRVTISADTSKNQLSLKLTSVTAADTGVYYCARHDAKFSGSYYVASWGQGTRVTVSS VL: DIQMTQSPSSLSASVGDRVTISCRASQSISTYLNWYQQQPGKAPKVLIFGATNLQSGVPSRFSGSGSGTDFTLTISSLQPEDFATYYCQQSYNTPLIFGQGTKLEIK | 434 MFI | – |
| 3243_J07 (antibody, V domains shown) VH: QVQLQESGPGLLKPSDTLALTCTVSGGSITSDYWSWIRQPPGRGLDWIGFFYNGGSTKYNPSLKSRVTISADTSKNQLSLKLTSVTAADTGVYYCARHDVKFSGSYYVASWGQGTRVTVSS VL: DIQMTQSPSSLSASVGDRVTISCRASQSISTYLNWYQQQPGKAPKVLISGATNLQSGVPSRFSGSGSGTDFTLTISSLQPEDFATYYCQQSYNTPLIFGQGTKLEIK | 131 MFI | – |
| 3253_P10 (antibody, V domains shown) VH: QVQLQESGPGLLKPSDTLALTCTVSGGSITSDYWSWIRQPPGRGLDWIGFFYNGGSTKYNPSLKSRVTISADTSKNQLSLKLTSVTAADTGVYYCARHDAKFSGSYYVASWGQGTRVTVSS VL: DIQMTQSPSSLSASVGDRVTISCRASQSISTYLNWYQQQPGKAPKVLISGATDLQSGVPSRFSGSGSGTDFTLTISSLQPEDFATYYCQQSYNTPLIFGQGTKLEIK | 43 MFI | – |
| 3252_C13 (antibody, V domains shown) VH: QVQLQESGPGLVKPSETLSLTCTVSGASISSDYWSWIRLPPGKGLEWIGYIYNRGSTKYTPSLKSRVTISLDTAENQFSLRLRSVTAADTAIYYCARHVGGHTYGIDYWGQGTLVTVSS VL: DIQMTQSPSSLSASVGDRVTITCRASQSISNYLNWYQHKPGEAPKLLNYAASSLQSGVPSRFSASGSGTDFTLTISSLQPEDFATYYCQQSYNTPITFGQGTRLEIK | 449 MFI | – |
| 3362_B11 (antibody, V domains shown) VH: QVQLQASGPGLVKPSETLSLTCTVSGDSITSGAYYWTWIRQHPGKGLEWIGYIYYSGNTYYNPSLKSRVTISLDTSKNQFSLKVNSVTAADTAVYYCARAASTSVLGYGMDVWGQGTTVTVSS VL: DIQMTQSPSSLSASVGDRVTITCRASQSISRYLNWYQQEPGKAPKLLVYAASSLQSGVPSRFSGSGSGTDFTLTISSLQPEDFATYYCQQSYSTPLTFGQGTRLEIK | 218 MFI | – |
| 3420_I23 (antibody, V domains shown) VH: QVQLQESGPGLVKPSETLSVTCKVSGDSISSYSWSWIRQPPGKGLEWVGYLYYSGSTKYNPSLKSRTTISVDTSTNQLSLKLSFVTAADTAVYFCARTGSESTTGYGMDVWGQGTTVTVSS VL: DIQMTQSPSSLSASVGDRVTITCRASQSISTYLNWYQQKPGKAPKLLIYAASSLHSGVPSRFSGSGSGTDFALTISSLQPEDFATYYCQQSYSPPITFGQGTRLEIK | 112 MFI | – |
| 3255_J06 (antibody, V domains shown) VH: QVQLQESGPGLVKPSETLSLTCTVSGASISSDYWSWIRLPPGKGLEWIGYIYNRGSTKYTPSLKSRVTISLDTAENQFSLRLRSVTAADTAVYYCARHVGGHTYGIDYWGQGTLVTVSS VL: DIQMTQSPSSLSASVGDRVTITCRASQSISNYLNWYQHKPGEAPKLLNYAASSLQSGVPSRFSASGSGTDFTLSISGLQPEDFATYYCQQSYNTPITFGPGTRLEIK | 442 MFI | – |
| 3259_J21 (antibody, V domains shown) VH: QVQLQESGPRVVRPSETLSLTCTVSGGSISSYNWIWIRQPPGKGLEWIGHIYDYGRTFYNSSLQSRPTISVDASKNQLSLRLTSVTASDTAVYYCARPLGILHYYAMDLWGQGTTVTVSS VL: DIQMTQSPLSVSVSVGDRVTIACRASQSIDKFLNWYQQKPGKAPKLLIYGASNLHSGAPSRFSASGSGTDFTLTITNIQTEDFATYLCQQSFSVPAFGGGTKVEIK | 1670 MFI | – |
| 3260_D19 (antibody, V domains shown) VH: DMQLVESGGGLVPPGGSLRLSCAASGFSVSDNYINWVRQAPGKGLDWVSVFYSADRTSYADSVKGRFTVSSHDSKNTVYLQMNSLRAEDTAVYYCARVQKSYYGMDVWGQGTTVTVSS VL: GIQMTQSPSSLSASVGDRVTITCRASQSISRYLNWYLQKPGKAPKLLISGASSLQSGVPSRFSGTGSGTEFTLTISSLQPEDFATYYCQQTFSIPLFGQGTKVEIK | 846 MFI | – |
| 3242_P05 (antibody, V domains shown) VH: DMQLVESGGGLVPPGGSLRLSCAASGFSVSDNYINWVRQAPGKGLDWVSVFYSADRTSYADSVKGRFTVSSHDSKNTVYLQMNSLRAEDTAVYYCARVQKSYYGMDVWGQGTTVTVSS VL: GIQMTQSPSSLSASVGDRVTITCRASQSISRYLNWYLQKPGKAPKLLISGASSLQSGVPSRFSGTGSGTEFTLTISSLQPEDFATYYCQQTFSIPLFGQGTKVEIK | 596 MFI | – |
| TCN-031 Fab fragment (Fab, V domains shown) VH: EVQLVESGGGLVQPGGSLRISCAASGFTVSSNYMSWVRQAPGKGLEWVSVIYSGGSTYYADSVKGRFSFSRDNSKNTVFLQMNSLRAEDTAVYYCARCLSRMRGYGLDVWGQGTTVTVSS VL: DIQMTQSPSSLSASVGDRVTITCRTSQSISSYLNWYQQKPGKAPKLLIYAASSLQSGVPSRFSGSGSGTDFTLTISGLQPEDFATYYCQQSYSMPAFGQGTKLEIK | – | Kd [3]: 14 nM; koff [3]: 0.014 s⁻¹; kon [3]: 1e+06 M⁻¹ s⁻¹ |
| 3248_P18 (antibody, V domains shown) VH: QVQLQESGPGLVKPSETLSLTCTVSGGSISAYHWSWIRQPPGKGLEWIGHIFDSGSTYYNPSLKSRVTISLDASKNQLSLRLTSVTASDTAIYYCARPLGSRYYYGMDVWGQGTTVTVSS VL: DIQMTQSPSSLSASVGDRVTITCRASQSISRYLNWYQQKPGKAPKLLIYGASTLQNGAPSRFSGSGSGTDFTLTISSLQPEDSATYLCQQSYSVPAFGGGTKVEVK | 967 MFI | – |
| 3136_G05 (antibody, V domains shown) VH: QVQLQESGPGLVKPSETLSLTCSVSGGSISSDFWSWIRQPPGKGLEWIGYVYNRGSTKYSPSLKSRVTISADMSKNQFSLNMSSVTAADTAVYYCAKNGRSSTSWGIDVWGKGTTVTVSS VL: DIQMTQSPSSLSASVGDRLTITCRASQSISTYLHWYQQKPGKAPKLLIYAASSLQSGVPSRFSGSRSGTDFTLTISSLQPDDFATYYCQQSYSPPLTFGPGTKVDMK | 109 MFI | – |
| TCN-032 Fab fragment (Fab, V domains shown) VH: QVQLQESGPGLVKPSETLSLTCTVSGSSISNYYWSWIRQSPGKGLEWIGFIYYGGNTKYNPSLKSRVTISQDTSKSQVSLTMSSVTAAESAVYFCARASCSGGYCILDYWGQGTLVTVSS VL: DIQMTQSPSSLSASVGDRVTITCRASQNIYKYLNWYQQRPGKAPKGLISAASGLQSGVPSRFSGSGSGTDFTLTITSLQPEDFATYYCQQSYSPPLTFGGGTRVEIK | – | Kd [3]: 3.2 nM; koff [3]: 0.0023 s⁻¹; kon [3]: 740000 M⁻¹ s⁻¹ |
